Results reported in patent US6465188, “Nucleic acid ligand complexes” (Gilead Sciences, Inc.).

Target: VEGF (vascular endothelial growth factor) (UniProt P15692-4 P15692-4:27-191)
Test: competition; competition ELISA apparent ED50; reduction attributed to geometry of liposome display
Conditions: chain copies: 2

Chain of VEGF (vascular endothelial growth factor) (P15692 other isoform, or with tags, fused parts or gaps): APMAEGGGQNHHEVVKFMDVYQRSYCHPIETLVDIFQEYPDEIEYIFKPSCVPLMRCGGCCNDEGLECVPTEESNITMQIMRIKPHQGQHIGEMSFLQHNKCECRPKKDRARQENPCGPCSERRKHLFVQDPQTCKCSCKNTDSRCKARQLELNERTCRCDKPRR

B1: NX278-Liposome (mixed)
mixed: TTTTACCCUGAUGGUAGACGCCGGGGUGTTTTT
modifications: 5'-dialkylglycerol (DAG), embedded in DSPC:cholesterol liposome; PS at 1-4 and 29-33; 2'-OMe at 5,13,16,17,20,23-26,28; 2'-NH2 at 6-9,12,15,19,21,22,27
EC50: ~100 nM
